Laboratory results as given in patent US20210087243A1.

Biological target: T1, linear CGQKLVG-conjugated-BSA
T1 sequence (peptide, conjugated to BSA): CGQKLVG
Test: SPR direct binding (MASS-1), linear peptide-BSA immobilised, supernatant flowed

B1: 305-61 (7E9) (antibody, mouse IgG3, V domains shown)
VH: QVQLQQSGAELVRPGASVTLSCKASGYTFTDYEMHWVKQTPVHGLEWIGAIDPETGDTAYNQEFKGKATLTADKSSSTAYMELRSLTSEDSAVYYCTSPIYYDYDWFAYWGHGTLVTVSA
VL: DIVMSQSPSSLAVSAGEKVTMSCKSSQSLLNNRTRKNYLAWYQQKPGQSPKLLIYWASTRESGVPDRFTGSGSGTDFTLTISSVQAEDLAVYYCKQSYNLRTFGGGTKLEIKR
With B1 the binding response (RU) was 7.7 RU.
